± gives the uncertainty stated by the source.
B1: Cytoplasmic polyadenylation element-binding protein 2, residues 513 to 575; numbered along this chain, Q7Z5Q1 (parent)
chain: KRVEVKPYVLDDQMCDECQGARCGGKFAPFFCANVTCLQYYCEFCWANIHSRAGREFHKPLVK

Variants of: B1
Assay: abundance fitness (aPCA) (normalised: wild type 0, dead -1); higher = more abundant; growth selection in yeast, the domain comes from the species named
Details: Homo sapiens

Variant | abundance fitness
KRVEVKPYVLDDQMCDECQGARCGGKFAPFFCANVTCLQYYCEFCWANIHSWAGREFHKPLVK [R52W] | -0.225 ± 0.061
KRVEVKPYVLDDQMCDECQGARCGGKFAPFFCANVTCLQYYCEFCWANIHSYAGREFHKPLVK [R52Y] | -0.088 ± 0.097
KRVEVKPYVLDDQMCDECQGARCGGKFAPFFCANVTCLQYYCEFCWANIHSRCGREFHKPLVK [A53C] | -0.091 ± 0.068
KRVEVKPYVLDDQMCDECQGARCGGKFAPFFCANVTCLQYYCEFCWANIHSRDGREFHKPLVK [A53D] | 0.02 ± 0.088
KRVEVKPYVLDDQMCDECQGARCGGKFAPFFCANVTCLQYYCEFCWANIHSREGREFHKPLVK [A53E] | 0.082 ± 0.055
KRVEVKPYVLDDQMCDECQGARCGGKFAPFFCANVTCLQYYCEFCWANIHSRFGREFHKPLVK [A53F] | -0.045 ± 0.056
KRVEVKPYVLDDQMCDECQGARCGGKFAPFFCANVTCLQYYCEFCWANIHSRHGREFHKPLVK [A53H] | 0.053 ± 0.064
KRVEVKPYVLDDQMCDECQGARCGGKFAPFFCANVTCLQYYCEFCWANIHSRIGREFHKPLVK [A53I] | -0.079 ± 0.076
KRVEVKPYVLDDQMCDECQGARCGGKFAPFFCANVTCLQYYCEFCWANIHSRKGREFHKPLVK [A53K] | 0.142 ± 0.051
KRVEVKPYVLDDQMCDECQGARCGGKFAPFFCANVTCLQYYCEFCWANIHSRLGREFHKPLVK [A53L] | -0.092 ± 0.033
KRVEVKPYVLDDQMCDECQGARCGGKFAPFFCANVTCLQYYCEFCWANIHSRMGREFHKPLVK [A53M] | -0.045 ± 0.057
KRVEVKPYVLDDQMCDECQGARCGGKFAPFFCANVTCLQYYCEFCWANIHSRNGREFHKPLVK [A53N] | 0.152 ± 0.086
KRVEVKPYVLDDQMCDECQGARCGGKFAPFFCANVTCLQYYCEFCWANIHSRPGREFHKPLVK [A53P] | 0.157 ± 0.046
KRVEVKPYVLDDQMCDECQGARCGGKFAPFFCANVTCLQYYCEFCWANIHSRQGREFHKPLVK [A53Q] | 0.106 ± 0.058
KRVEVKPYVLDDQMCDECQGARCGGKFAPFFCANVTCLQYYCEFCWANIHSRRGREFHKPLVK [A53R] | 0.055 ± 0.03
KRVEVKPYVLDDQMCDECQGARCGGKFAPFFCANVTCLQYYCEFCWANIHSRSGREFHKPLVK [A53S] | 0.053 ± 0.031
KRVEVKPYVLDDQMCDECQGARCGGKFAPFFCANVTCLQYYCEFCWANIHSRTGREFHKPLVK [A53T] | 0.082 ± 0.046
KRVEVKPYVLDDQMCDECQGARCGGKFAPFFCANVTCLQYYCEFCWANIHSRVGREFHKPLVK [A53V] | -0.006 ± 0.038
KRVEVKPYVLDDQMCDECQGARCGGKFAPFFCANVTCLQYYCEFCWANIHSRWGREFHKPLVK [A53W] | -0.287 ± 0.049
KRVEVKPYVLDDQMCDECQGARCGGKFAPFFCANVTCLQYYCEFCWANIHSRYGREFHKPLVK [A53Y] | -0.098 ± 0.064
KRVEVKPYVLDDQMCDECQGARCGGKFAPFFCANVTCLQYYCEFCWANIHSRAEREFHKPLVK [G54E] | -0.065 ± 0.064
KRVEVKPYVLDDQMCDECQGARCGGKFAPFFCANVTCLQYYCEFCWANIHSRAHREFHKPLVK [G54H] | -0.123 ± 0.094

Variant | abundance fitness
KRVEVKPYVLDDQMCDECQGARCGGKFAPFFCANVTCLQYYCEFCWANIHSRAIREFHKPLVK [G54I] | -0.176 ± 0.16
KRVEVKPYVLDDQMCDECQGARCGGKFAPFFCANVTCLQYYCEFCWANIHSRAKREFHKPLVK [G54K] | -0.195 ± 0.1
KRVEVKPYVLDDQMCDECQGARCGGKFAPFFCANVTCLQYYCEFCWANIHSRALREFHKPLVK [G54L] | -0.146 ± 0.046
KRVEVKPYVLDDQMCDECQGARCGGKFAPFFCANVTCLQYYCEFCWANIHSRAMREFHKPLVK [G54M] | -0.299 ± 0.07
KRVEVKPYVLDDQMCDECQGARCGGKFAPFFCANVTCLQYYCEFCWANIHSRANREFHKPLVK [G54N] | 0.108 ± 0.11
KRVEVKPYVLDDQMCDECQGARCGGKFAPFFCANVTCLQYYCEFCWANIHSRAPREFHKPLVK [G54P] | -0.004 ± 0.057
KRVEVKPYVLDDQMCDECQGARCGGKFAPFFCANVTCLQYYCEFCWANIHSRASREFHKPLVK [G54S] | -0.009 ± 0.043
KRVEVKPYVLDDQMCDECQGARCGGKFAPFFCANVTCLQYYCEFCWANIHSRATREFHKPLVK [G54T] | -0.112 ± 0.068
KRVEVKPYVLDDQMCDECQGARCGGKFAPFFCANVTCLQYYCEFCWANIHSRAVREFHKPLVK [G54V] | -0.32 ± 0.039
KRVEVKPYVLDDQMCDECQGARCGGKFAPFFCANVTCLQYYCEFCWANIHSRAWREFHKPLVK [G54W] | -0.259 ± 0.061
KRVEVKPYVLDDQMCDECQGARCGGKFAPFFCANVTCLQYYCEFCWANIHSRAGAEFHKPLVK [R55A] | -0.03 ± 0.052
KRVEVKPYVLDDQMCDECQGARCGGKFAPFFCANVTCLQYYCEFCWANIHSRAGCEFHKPLVK [R55C] | -0.194 ± 0.09
KRVEVKPYVLDDQMCDECQGARCGGKFAPFFCANVTCLQYYCEFCWANIHSRAGDEFHKPLVK [R55D] | -0.08 ± 0.06
KRVEVKPYVLDDQMCDECQGARCGGKFAPFFCANVTCLQYYCEFCWANIHSRAGEEFHKPLVK [R55E] | -0.142 ± 0.071
KRVEVKPYVLDDQMCDECQGARCGGKFAPFFCANVTCLQYYCEFCWANIHSRAGFEFHKPLVK [R55F] | 0.035 ± 0.051
KRVEVKPYVLDDQMCDECQGARCGGKFAPFFCANVTCLQYYCEFCWANIHSRAGGEFHKPLVK [R55G] | -0.176 ± 0.055
KRVEVKPYVLDDQMCDECQGARCGGKFAPFFCANVTCLQYYCEFCWANIHSRAGHEFHKPLVK [R55H] | -0.131 ± 0.087
KRVEVKPYVLDDQMCDECQGARCGGKFAPFFCANVTCLQYYCEFCWANIHSRAGIEFHKPLVK [R55I] | 0.104 ± 0.1
KRVEVKPYVLDDQMCDECQGARCGGKFAPFFCANVTCLQYYCEFCWANIHSRAGLEFHKPLVK [R55L] | 0.04 ± 0.035
KRVEVKPYVLDDQMCDECQGARCGGKFAPFFCANVTCLQYYCEFCWANIHSRAGMEFHKPLVK [R55M] | 0.031 ± 0.049
KRVEVKPYVLDDQMCDECQGARCGGKFAPFFCANVTCLQYYCEFCWANIHSRAGNEFHKPLVK [R55N] | -0.019 ± 0.079

Reference: the Human Domainome abundance scans (Beltran et al. 2025)
